Test results taken from patent US20140039042, “BISPECIFIC APTAMERS MEDIATING TUMOUR CELL LYSIS” (MERCK PATENT GMBH, published 2014).

Experiments:
[1] = molecular target: T1, CD16α (FcγRIIIa) V158 allotype, CD16α-6His (UniProt P08637 P08637:17-208); experiment: filter; 38±26 nM, n=4, dot blot; broad unspecific cell binding in FACS; conditions: tags: 6His
CD16β (FcγRIIIb) = CD16β (FcγRIIIb) (UniProt O75015 O75015:17-200); experiment: filter; dot blot; conditions: tags: 10His
[2] = molecular target: T1, CD16α (FcγRIIIa) V158 allotype, …; experiment: filter; 45±28 nM, n=10, dot blot; conditions: tags: 6His
c-Met Fc fusion [3] = molecular target: T2, c-Met Fc fusion (UniProt P08581 P08581:25-932); experiment: filter; c-Met aptamer at 3' end performed best; dot blot; conditions: tags: Fc-His fusion; chain copies: 2
c-Met Fc fusion [4] = molecular target: T2, c-Met Fc fusion; experiment: filter; dot blot; conditions: tags: Fc-His fusion; chain copies: 2
[5] = molecular target: T1, CD16α (FcγRIIIa) V158 allotype, …; experiment: filter; dot blot; allotype not specified for this assay; conditions: tags: 6His
c-Met Fc fusion [6] = molecular target: T2, c-Met Fc fusion; experiment: filter; picomolar Kd, number only in figure; conditions: tags: Fc-His fusion; chain copies: 2
c-Met Fc fusion [7] = molecular target: T2, c-Met Fc fusion; experiment: filter; 91±40 pM, n=3, dot blot; heading cites SEQ ID NO 53 but CLN0003 is SEQ 52; conditions: tags: Fc-His fusion; chain copies: 2
[8] = molecular target: T1, CD16α (FcγRIIIa) V158 allotype, …; experiment: filter; dot blot; conditions: tags: 6His
c-Met Fc fusion [9] = molecular target: T2, c-Met Fc fusion; experiment: filter; complete loss of binding, dot blot; conditions: tags: Fc-His fusion; chain copies: 2
c-Met Fc fusion [10] = molecular target: T2, c-Met Fc fusion; experiment: filter; dot blot; picomolar; conditions: tags: Fc-His fusion; chain copies: 2
c-Met Fc fusion [11] = molecular target: T2, c-Met Fc fusion; experiment: filter; 11±6 nM, n=6, dot blot; FIG. 2 legend gives 57 nM; heading cites SEQ ID NO 54 but CLN0004 is SEQ 53; conditions: tags: Fc-His fusion; chain copies: 2
c-Met Fc fusion [12] = molecular target: T2, c-Met Fc fusion; experiment: filter; nearly similar affinity as full length; conditions: tags: Fc-His fusion; chain copies: 2
c-Met Fc fusion [13] = molecular target: T2, c-Met Fc fusion; experiment: filter; picomolar Kd, number only in figure; EMSA also shows binding; conditions: tags: Fc-His fusion; chain copies: 2

T1 sequence (P08637 17-208, one chain of several): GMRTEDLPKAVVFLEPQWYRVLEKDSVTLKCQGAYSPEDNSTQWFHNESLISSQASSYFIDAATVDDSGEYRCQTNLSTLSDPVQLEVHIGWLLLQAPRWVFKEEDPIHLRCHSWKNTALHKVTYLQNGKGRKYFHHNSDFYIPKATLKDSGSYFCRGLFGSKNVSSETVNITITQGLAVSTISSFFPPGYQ
Chain of CD16β (FcγRIIIb) (O75015 17-200, one chain of several): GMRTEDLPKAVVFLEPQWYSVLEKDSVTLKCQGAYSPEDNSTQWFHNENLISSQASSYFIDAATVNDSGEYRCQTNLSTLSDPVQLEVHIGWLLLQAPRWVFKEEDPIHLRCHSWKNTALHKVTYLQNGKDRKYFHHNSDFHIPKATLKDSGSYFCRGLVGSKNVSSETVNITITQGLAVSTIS
T2 sequence (P08581 25-932, one chain of several): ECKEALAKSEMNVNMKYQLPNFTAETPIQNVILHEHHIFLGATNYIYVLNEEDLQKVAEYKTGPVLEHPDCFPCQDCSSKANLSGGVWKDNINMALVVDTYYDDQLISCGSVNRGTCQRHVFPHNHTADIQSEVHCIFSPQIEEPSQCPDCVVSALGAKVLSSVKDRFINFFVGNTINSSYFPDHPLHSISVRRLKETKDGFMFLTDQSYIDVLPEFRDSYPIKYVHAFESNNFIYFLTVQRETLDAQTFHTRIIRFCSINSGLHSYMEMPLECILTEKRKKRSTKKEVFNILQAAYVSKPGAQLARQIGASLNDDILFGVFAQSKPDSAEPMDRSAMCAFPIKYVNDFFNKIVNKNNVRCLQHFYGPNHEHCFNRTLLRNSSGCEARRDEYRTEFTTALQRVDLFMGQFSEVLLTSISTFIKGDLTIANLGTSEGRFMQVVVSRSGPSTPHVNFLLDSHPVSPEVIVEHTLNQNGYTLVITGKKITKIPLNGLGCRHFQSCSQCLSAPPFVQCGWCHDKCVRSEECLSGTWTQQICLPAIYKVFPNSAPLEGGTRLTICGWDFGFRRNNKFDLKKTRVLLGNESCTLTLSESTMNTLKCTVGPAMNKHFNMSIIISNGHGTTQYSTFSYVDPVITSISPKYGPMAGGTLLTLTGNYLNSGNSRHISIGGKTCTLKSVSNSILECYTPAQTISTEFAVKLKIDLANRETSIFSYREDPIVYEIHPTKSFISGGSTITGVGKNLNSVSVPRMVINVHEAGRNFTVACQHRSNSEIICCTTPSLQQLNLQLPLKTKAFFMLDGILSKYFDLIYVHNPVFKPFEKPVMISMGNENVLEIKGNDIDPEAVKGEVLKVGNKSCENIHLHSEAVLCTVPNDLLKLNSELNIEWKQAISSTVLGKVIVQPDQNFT

B1: CLN0018 (ssDNA)
DNA: GGAGGGAAAAGTTATCAGGCATCACGTGGTGGGCAAATAACCGGTTGGGGTGGGTCGAGGGATTAGTTTTGGAGTACTCGCTCC
Kd [1]: 38 nM | binding result (CD16β (FcγRIIIb)): no binding

B2: CLN0020 (ssDNA)
DNA: GGAGGGAAAAGTTATCAGGCCACTGCGGGGGTCTATACGTGAGGAAGAAGTGGGCAGGTCGATTAGTTTTGGAGTACTCGCTCC
Kd [2]: 45 nM | binding result (CD16β (FcγRIIIb)): no binding

B3: bsA18 (ssDNA)
DNA: CCACTGCGGGGGTCTATACGTGAGGAAGAAGTGGGCAGGTCATCAGGCGAGTGCGTAATGGTACGATTTGGGAAGTGGCTTGGGGTGGGATTAGTTTTGGAGTACTC
binding result (c-Met Fc fusion [3]): binds

B4: bsA31 (ssDNA)
DNA: CCACTGCGGGGGTCTATACGTGAGGAAGAAGTGGGCAGGTCAAAAAAAAAAAAAAAGAGTGCGTAATGGTACGATTTGGGAAGTGGCTTGGGGTGGGATTAGTTTTGGAGTACTCGCTCC
Kd (c-Met Fc fusion [4]): 92 nM | Kd [5]: 24 nM

B5: bsA20 (ssDNA)
DNA: CCACTGCGGGGGTCTATACGTGAGGAAGAAGTGGGCAGGTCGGAGGGAAAAGTTATCAGGCTGGATGGTAGCTCGGTCGGGGTGGGTGGGTTGGCAAGTCT
Kd (c-Met Fc fusion [4]): 5 nM

B6: bsA10 (ssDNA)
DNA: GGAGGGAAAAGTTATCAGGCTGGATGGTAGCTCGGTCGGGGTGGGTGGGTTGGCAAGTCTGATTAGTTTTGGAGTACTCGCTCCGGAGGGAAAAGTTATCAGGCCACTGCGGGGGTCTATACGTGAGGAAGAAGTGGGCAGGTCGATTAGTTTTGGAGTACTCGCTCC
binding result (c-Met Fc fusion [6]): binds

B7: CLN0003 (ssDNA)
DNA: GGAGGGAAAAGTTATCAGGCTGGATGGTAGCTCGGTCGGGGTGGGTGGGTTGGCAAGTCTGATTAGTTTTGGAGTACTCGCTCC
Kd (c-Met Fc fusion [7]): 0.091 nM

B8: bsA21 (ssDNA)
DNA: CCACTGCGGGGGTCTATACGTGAGGAAGAAGTGGGCAGGTCAAAAAAAAAAAAAAAGGAGGGAAAAGTTATCAGGCTGGATGGTAGCTCGGTCGGGGTGGGTGGGTTGGCAAGTCTGATTAGTTTTGGAGTACTCGCTCC
binding result (c-Met Fc fusion [6]): binds

B9: bsA3 (ssDNA)
DNA: CCACTGCGGGGGTCTATACGTGAGGAAGAAGTGGGCAGGTCAAAAAAAAAAAAAAAGAGTGCGTAATGGTACGATTTGGGAAGTGGCTTGGGGTGGG
binding result (c-Met Fc fusion [3]): binds

B10: CLN0123 (ssDNA)
DNA: GGAGGGAAAAGTTATCAGGCAGAGGGGAGGGTCGGGTATCGGCGTGTTCGGGGGATCTGCGATTAGTTTTGGAGTACTCGCTCC
binding result (CD16β (FcγRIIIb)): no binding | Kd [8]: 231 nM

B11: CLN0004 without flanking sequences (ssDNA)
DNA: GAGTGCGTAATGGTACGATTTGGGAAGTGGCTTGGGGTGG
binding result (c-Met Fc fusion [9]): no binding

B12: bsA17 (ssDNA)
DNA: CCACTGCGGGGGTCTATACGTGAGGAAGAAGTGGGCAGGTCGGAGGGAAAAGTTATCAGGCTGGATGGTAGCTCGGTCGGGGTGGGTGGGTTGGCAAGTCTGATTAGTTTTGGAGTACTCGCTCC
Kd (c-Met Fc fusion [10]): 0.352 nM | Kd [5]: 19 nM

B13: CLN0004 (ssDNA)
DNA: GGAGGGAAAAGTTATCAGGCGAGTGCGTAATGGTACGATTTGGGAAGTGGCTTGGGGTGGGATTAGTTTTGGAGTACTCGCTCC
Kd (c-Met Fc fusion [11]): 11 nM

B14: bsA13 (ssDNA)
DNA: GAGTGCGTAATGGTACGATTTGGGAAGTGGCTTGGGGTGGGATTAGTTTTGGAGTACTCGCTCCGGAGGGAAAAGTTATCAGGCCACTGCGGGGGTCTATACGTGAGGAAGAAGTGG
Kd (c-Met Fc fusion [4]): 18 nM

B15: -19CLN0020-31 (34mer, MS3) (ssDNA)
DNA: CCACTGCGGGGGTCTATACGTGAGGAAGAAGTGG
Kd [5]: 47 nM

B16: bsA12 (ssDNA)
DNA: CCACTGCGGGGGTCTATACGTGAGGAAGAAGTGGGCAGGTCGATTAGTTTTGGAGTACTCGCTCCGGAGGGAAAAGTTATCAGGCGAGTGCGTAATGGTACGATTTGGGAAGTGGCTTGGGGTGGGATTAGTTTTGGAGTACTC
Kd (c-Met Fc fusion [4]): 18 nM

B17: -20CLN0004-23 (41mer, MS2, with G61) (ssDNA)
DNA: GAGTGCGTAATGGTACGATTTGGGAAGTGGCTTGGGGTGGG
binding result (c-Met Fc fusion [12]): binds

B18: bsA9 (ssDNA)
DNA: GGAGGGAAAAGTTATCAGGCCACTGCGGGGGTCTATACGTGAGGAAGAAGTGGGCAGGTCGATTAGTTTTGGAGTACTCGCTCCGGAGGGAAAAGTTATCAGGCTGGATGGTAGCTCGGTCGGGGTGGGTGGGTTGGCAAGTCTGATTAGTTTTGGAGTACTCGCTCC
binding result (c-Met Fc fusion [6]): binds

B19: bsA22 (ssDNA)
DNA: CCACTGCGGGGGTCTATACGTGAGGAAGAAGTGGAAAAAAAAAAAAAAAGGAGGGAAAAGTTATCAGGCTGGATGGTAGCTCGGTCGGGGTGGGTGGGTTGGCAAGTCTGATTAGTTTTGGAGTACTCGCTCC
binding result (c-Met Fc fusion [13]): binds

B20: bsA15 (ssDNA)
DNA: GGAGGGAAAAGTTATCAGGCAGAGGGGAGGGTCGGGTATCGGCGTGTTCGGGGGATCTGCGATTAGTTTTGGAGTACTCGCTCCGGAGGGAAAAGTTATCAGGCTGGATGGTAGCTCGGTCGGGGTGGGTGGGTTGGCAAGTCTGATTAGTTTTGGAGTACTCGCTCC
Kd [5]: 174 nM

B21: bsA16 (ssDNA)
DNA: GAGTGCGTAATGGTACGATTTGGGAAGTGGCTTGGGGTGGGATTAGTTTTGGAGTACTCGCTCCGGAGGGAAAAGTTATCAGGCAGAGGGGAGGGTCGGGTATCGGCGTGTTCGGGGGATCTGCGATTAGTTTTGGAGTACTCGCTCC
Kd [5]: 178 nM

B22: bsA19 (ssDNA)
DNA: CCACTGCGGGGGTCTATACGTGAGGAAGAAGTGGGCAGGTCAAAAAAAAAAAAAAAGGAGGGAAAAGTTATCAGGCTGGATGGTAGCTCGGTCGGGGTGGGTGGGTTGGCAAGTCT
binding result (c-Met Fc fusion [3]): binds

B23: bsA11 (ssDNA)
DNA: CCACTGCGGGGGTCTATACGTGAGGAAGAAGTGGGCAGGTCGATTAGTTTTGGAGTACTCGCTCCGGAGGGAAAAGTTATCAGGCTGGATGGTAGCTCGGTCGGGGTGGGTGGGTTGGCAAGTCTGATTAGTTTTGGAGTACTCGCTCC
binding result (c-Met Fc fusion [13]): binds
